# T1: Aβ fragment 1-16 (human)
# T1 construct: also called Aβ1-16; Aβ16
# T1 peptide: DAEFRHDSGYEVHHQK
# T2: Aβ fragment 29-40 (human)
# T2 peptide: GAIIGLMVGGVV
# B1: VHH R3VQ (VHH)
# VHH: EVQLQASGGGLVQTGDSLRLSCADSGSTFRNYNIGWFRQTPGQAREFVAAVSRTGISTHVADSLQGRFTISRDNAKNTVYLQMNSLKPEDTAVYSCAAGRPGVGAVNRAMDYDYWGQGTQVTVSS
# notes: Alpaca VHH, monomeric; Expressed with a His-tag or a Strep-tag; also called R3VQ(His)-NH2 1; R3VQ-NH2 1; not shown: 6-Histidine tag (vector pET23) or Streptavidin-tag (vector pASK IBA2)
# B2: R3VQ(His)-N-(DOTA/Gd) conjugate 2c (VHH)
# VHH: B1 VHH
# modifications: DOTA/Gd randomly on lysine residues; average Gd/protein (1) 2 (3)
# notes: Non-site-specific conjugate of R3VQ(His)-NH2 1; not shown: 6-Histidine tag from modified vector pET23
# B3: R3VQ(His)-N-(DOTA/Gd) conjugate 2d (VHH)
# VHH: B1 VHH
# modifications: DOTA/Gd randomly on lysine residues; average Gd/protein (1) 2 (3)
# notes: as for B2
# B4: Aβ 16-35 (peptide)
# peptide: KLVFFAEDVGSNKGAIIGLM
# notes: This fragment is not in the list of fragments said to be tested (1-16, 10-20, 15-25, 22-35, 29-40)
# Legend:
# Aβ fragment 1-16 = target: T1, Aβ fragment 1-16; assay: competitive inhibition ELISA with soluble Aβ fragments
# Procedure: (§1) The binding affinity of VHHs was determined as previously described (Friguet B. et al., 1985, Immunol Methods, 77:305-19). Briefly, various concentrations of Aβ peptides (Aβ fragments 1-16, 10-20, 15-25, 22-35 and 29-40) were incubated in solution overnight at 4° C. with a known quantity of VHH until equilibrium was reached. The VHH concentration used was deteimined by preliminary ELISA calibrations. Each mixture (100 μl) was transferred to a well of a microtiter plate previously coated with antigen and was incubated for 20 min at 4° C. The plates were washed with buffer 0.1% Tween 20 in PBS and bound VHHs were detected by adding beta-galactosidase-conjugated goat anti-rabbit Igs (Biosys, Compiegne, France) and 4-methylumbelliferyl […] (Sigma). Fluorescence was read (Fluoroskan, Labsystem, Finland) at 460 nm, after excitation at 355 nm. KD was estimated from the slope of the regression curve obtained by plotting the reciprocal of the fraction of bound antibody versus the reciprocal of the molar concentration of antigen.
# Aβ fragment 29-40 = target: T2, Aβ fragment 29-40; assay: as above
# Procedure: as §1
# A-beta 42 peptide (Aβ42) = target: T3, A-beta 42 peptide (Aβ42) (human); assay: competition ELISA in solution (method of Friguet et al.)
# T3 construct: Synthetic peptide (Bachem); on the western blot it ran as monomers, dimers and trimers; also called Aβ1-42; amyloid β peptide 42
# A-beta 40 peptide (Aβ40) = target: T4, A-beta 40 peptide (Aβ40) (human, biotinylated when bound to the streptavidin-coated ELISA plate); assay: ELISA on plate-bound Aβ
# T4 construct: Aβ42 without the C-terminal amino acids IA; The ELISA methods say A-beta 40 or A-beta 42 (preferably A-beta 40); also called Aβ1-40
# VHH R3VQ = target: B1; assay: competitive inhibition ELISA, soluble peptide against plate-coated Aβ antigen
# Procedure: as §1
# T4 sequence (peptide, as listed by the source): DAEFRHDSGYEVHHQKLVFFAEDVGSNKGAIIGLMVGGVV
# T3 sequence (peptide, as listed by the source): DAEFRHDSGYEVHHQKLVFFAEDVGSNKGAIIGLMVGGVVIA
binder,measurement,setting,value
B1,binding result,Aβ fragment 1-16,no binding
same,binding result,Aβ fragment 29-40,no binding
same,Kd,A-beta 42 peptide (Aβ42),17 nM
B2,binding in ELISA compared to the original VHH 1,A-beta 40 peptide (Aβ40),~10%
B3,binding in ELISA compared to the original VHH 1,A-beta 40 peptide (Aβ40),~10%
B4,IC50,VHH R3VQ,16 nM

# — patent US20160355575A1 (Hoffmann-La Roche, published 2016)
